Positions count from the first letter of the chain named. In names and notes the source's numbering stands. Each block holds one molecule with its values, some of them ahead of it.
How the values were obtained:
[1] = Determination of binding constants of inhibitor in Tris buffer at pH 8; assay type: biochemical; conditions: Ki of variant with the mutation relative to variant without the mutation
Procedure: (§1) Purified protease variants are pre-diluted to approximately 0.2 mg/ml in dilution buffer. 40 μl diluted protease is then mixed with 40 μl inhibitor solution (Z-Gly-Ala-NHCH(CH2C6H4pOH)C(OH)(SO3Na)—H, wherein Z is benzyloxycarbonyl) or 40 μl 4-FPBA solution in the well of a 96 well microtiter plate (Nunc F 96-MTP). […] After 10 min mixing of protease and inhibitor at room temperature, 30 μl of the mixture is transferred to a microtiter plate (Nunc U96 PP 0.5 ml) with 270 μl Model B detergent in the wells resulting in inhibitor concentrations of 0-30 μM and 4-FPBA concentrations of 0-6000 μM. Protease, inhibitor and detergent is mixed for 1 hour using magnetic bars for 1 hour at room temperature to reach equilibrium. Then 20 μl is transferred to a microtiter plate (Nunc F 96-MTP). 100 μl substrate solution is added and after 5 sec mixing absorbance at 405 nm is measured every 20 sec for 5 min on a SpectraMax Plus reader. Slope from linear regression of initial increase in absorbance at 405 nm is used for calculation of apparent binding constants.
(§2) It is assumed that protease and inhibitor react according to the equation: E+I ? EI
(§3) Where E is the protease, I is the inhibitor and EI is the protease-inhibitor complex. […] The concentration of enzyme-inhibitor in the detergent solution is then given by:
(§4) where Etot is the total protease concentration ([Etot]=[E]+[EI]), Itot is the total inhibitor concentration ([Itot]=[I]+[EI]), and Ki is the equilibrium binding constant for the reaction. The measured slopes V are given by:
(§5) where V0 is the slope without inhibitor added. To calculate apparent binding constant Ki least square fitting of measured slopes at various inhibitor concentrations to this equation is performed with Ki and V0 as variables.
(§6) Having the Ki for each variant, it is possible to calculate the effect of a single mutation, if data are available for at least two variants that differ only by that mutation. In this case, the relative Ki for the mutation is calculated:
(§7) [formula] A lower Ki is desirable, as a satisfactory inhibition can be obtained at a lower inhibitor concentration, so beneficial mutations have a relative Ki<1.0 The following table show such relative Kimutation. Each row show: • a mutation (column 1: “Mutation”) • a protease variant (relative to SEQ ID NO: 2) that comprise the mutation from column 1 (column 2: “Variant with the mutation”) • another protease variant (relative to SEQ ID NO: 2), that differs from the one in column 2 only by not having the mutation in column 1 (column 3: “Variant without the mutation”) • Relative Kimutation for the mutation in column 1, in the context of the variant in column 3, measured in Model B detergent (column 4: “inhibitor binding in Model B”) • Relative Kimutation for the mutation in column 1, in the context of the variant in column 3, measured in Tris buffer at pH 8 (column 5: “inhibitor binding in Tris buffer pH 8”)

[2] = Determination of binding constants of inhibitor (NNIC) in Model B detergent, Suc-AAPF-pNA read-out; assay type: biochemical; conditions: Ki of variant with the mutation relative to variant without the mutation; for Inhibitor-binding relative Kimutation, inhibitor binding in Model B: <1.0 beneficial
Procedure: as §1, §2, §3, §4, §5
The Ki for the parent protease and for each variant was calculated as described above
as §6, §7
Ki were calculated as shown in Example 3. The Improvement Factor (IF) or Relative

B1: K146N, S173P, S175P, F180Y: TY145 protease (SEQ ID NO 3) variant with these substitutions (protein, listed as Bacillus sp.)
chain: AVPSTQTPWGIKSIYNDQSITKTTGGSGIKVAVLDTGVYTSHLDLAGSAEQCKDFTQSNPLVDGSCTDRQGHGTHVAGTVLAHGGSNGQGVYGVAPQAKLWAYKVLGDNGSGYSDDIAAAIRHVADEASRTGSKVVINMSLGSSANDSLIASAVDYAYGKGVLIVAAAGNSGPGPNTIGYPGGLVNAVAVAALENVQQNGTYRVADFSSRGNPATAGDYIIQERDIEVSAPGASVESTWYTGGYNTISGTSMATPHVAGLAAKIWSANTSLSHSQLRTELQNRAKVYDIKGGIGAGTGDDYASGFGYPRVK
Inhibitor-binding relative Kimutation, inhibitor binding in Tris buffer pH 8 [1]: 0.91
Inhibitor-binding relative Kimutation, inhibitor binding in Model B [2]: 0.93

B3: S27K, S171N, S173P, G174R, S175P, F180Y, G182A, L184F, Q198E, N199K, R224G, T297P: TY145 protease (SEQ ID NO 3) variant with these substitutions (protein, listed as Bacillus sp.)
chain: B1 chain with S27K, N146K, S171N, G174R, G182A, L184F, Q198E, N199K, R224G, T297P
Inhibitor-binding relative Kimutation, inhibitor binding in Model B (Table 4b) [2]: 0.69

B4: K146F, S173P, S175P, F180Y: TY145 protease (SEQ ID NO 3) variant with these substitutions (protein, listed as Bacillus sp.)
chain: B1 chain with N146F
Inhibitor-binding relative Kimutation, inhibitor binding in Tris buffer pH 8 [1]: 0.19
Inhibitor-binding relative Kimutation, inhibitor binding in Model B [2]: 0.25

B6: S27K, I121V, S171N, S173P, G174R, S175P, F180Y, Q198E, R224S, T297P: TY145 protease (SEQ ID NO 3) variant with these substitutions (protein, listed as Bacillus sp.)
chain: B1 chain with S27K, I121V, N146K, S171N, G174R, Q198E, R224S, T297P
Inhibitor-binding relative Kimutation, inhibitor binding in Model B [2]: 0.56

B9: S114Q, S173P, S175P, F180Y: TY145 protease (SEQ ID NO 3) variant with these substitutions (protein, listed as Bacillus sp.)
chain: B1 chain with S114Q, N146K
Inhibitor-binding relative Kimutation, inhibitor binding in Tris buffer pH 8 [1]: 0.34
Inhibitor-binding relative Kimutation, inhibitor binding in Model B [2]: 0.63

B10: K146A, S173P, S175P, F180Y: TY145 protease (SEQ ID NO 3) variant with these substitutions (protein, listed as Bacillus sp.)
chain: B1 chain with N146A
Inhibitor-binding relative Kimutation, inhibitor binding in Tris buffer pH 8 [1]: 0.29
Inhibitor-binding relative Kimutation, inhibitor binding in Model B [2]: 0.34

B11: S27K, V162T, S173P, G174K, S175P, F180Y, L184F, Q197K, Q198E, T297P: TY145 protease (SEQ ID NO 3) variant with these substitutions (protein, listed as Bacillus sp.)
chain: B1 chain with S27K, N146K, V162T, G174K, L184F, Q197K, Q198E, T297P
Inhibitor-binding relative Kimutation, inhibitor binding in Model B (Table 4b) [2]: 0.17

B13: S27K, S171D, S173P, G174R, S175P, G182A, L184F, Q198E, N199K, R224G, T297P: TY145 protease (SEQ ID NO 3) variant with these substitutions (protein, listed as Bacillus sp.)
chain: AVPSTQTPWGIKSIYNDQSITKTTGGKGIKVAVLDTGVYTSHLDLAGSAEQCKDFTQSNPLVDGSCTDRQGHGTHVAGTVLAHGGSNGQGVYGVAPQAKLWAYKVLGDNGSGYSDDIAAAIRHVADEASRTGSKVVINMSLGSSAKDSLIASAVDYAYGKGVLIVAAAGNDGPRPNTIGFPAGFVNAVAVAALENVQEKGTYRVADFSSRGNPATAGDYIIQEGDIEVSAPGASVESTWYTGGYNTISGTSMATPHVAGLAAKIWSANTSLSHSQLRTELQNRAKVYDIKGGIGAGPGDDYASGFGYPRVK
Inhibitor-binding relative Kimutation, inhibitor binding in Model B (Table 4b) [2]: 0.49

Other lines, results leading:

Inhibitor-binding relative Kimutation, inhibitor binding in Tris buffer pH 8 [1]: 0.06
Inhibitor-binding relative Kimutation, inhibitor binding in Model B [2]: 0.08
B2: K146T, S173P, S175P, F180Y: TY145 protease (SEQ ID NO 3) variant with these substitutions (protein, listed as Bacillus sp.)
chain: B1 chain with N146T

Inhibitor-binding relative Kimutation, inhibitor binding in Model B [2]: 0.50
B5: S173P, S175P, F180Y, R224S: TY145 protease (SEQ ID NO 3) variant with these substitutions (protein, listed as Bacillus sp.)
chain: B1 chain with N146K, R224S

Inhibitor-binding relative Kimutation, inhibitor binding in Tris buffer pH 8 [1]: 0.21
Inhibitor-binding relative Kimutation, inhibitor binding in Model B [2]: 0.35
B7: I150N, S173P, S175P, F180Y: TY145 protease (SEQ ID NO 3) variant with these substitutions (protein, listed as Bacillus sp.)
chain: B1 chain with N146K, I150N

Inhibitor-binding relative Kimutation, inhibitor binding in Tris buffer pH 8 [1]: 0.40
Inhibitor-binding relative Kimutation, inhibitor binding in Model B [2]: 0.50
B8: I150A, S173P, S175P, F180Y: TY145 protease (SEQ ID NO 3) variant with these substitutions (protein, listed as Bacillus sp.)
chain: B1 chain with N146K, I150A

Inhibitor-binding relative Kimutation, inhibitor binding in Tris buffer pH 8 [1]: 0.16
Inhibitor-binding relative Kimutation, inhibitor binding in Model B [2]: 0.23
B12: K146W, S173P, S175P, F180Y: TY145 protease (SEQ ID NO 3) variant with these substitutions (protein, listed as Bacillus sp.)
chain: B1 chain with N146W

From patent US10400230B2, “Protease variants and polynucleotides encoding same” (NOVOZYMES A/S, priority 2014, dated 2019)
